Assay results: the supplement of paper PMC10724198
± gives the standard deviation of the averaged measurements.

Test system: Saccharomyces cerevisiae
Test: protein stability index of tFT-peptide fusion (C-terminal peptide) (PSI (0-1 scale)); higher = more stable (slower turnover)
Settings: genetic background: wild type; temperature: 30 C
Method: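 Multiplexed protein stability (MPS) profiling in S. cerevisiae. Random 12-aa peptides (tFT-X12 library) are fused to the C-terminus of a sfGFP-mCherry tandem fluorescent timer, after mCherry and a GGGS linker. Cells are FACS-sorted into 8 mCherry/sfGFP bins and deep-sequenced. The protein stability index (PSI) is the read-weighted bin average, scaled from 0 (unstable) to 1 (stable). Only peptides with >10 reads are reported; cells were grown at 30 °C in SC-His with glucose.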
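Also: PSI is a weighted mean of sequencing reads over stability bins, variants kept only with over 10 reads, mCherry proximal and sfGFP distal, peptide attached via GGGS linker.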

| Sequence | protein stability index |
| --- | --- |
| HPSRWPSPRAIL | 0.684 ± 0.051 |
| VERDARGESCSR | 0.747 ± 0.18 |
| SPFGFPPPSPPA | 0.6843 ± 0.003 |
| ACLWRLSWVLGK | 0.641 ± 0.037 |
| QGEKDFRMGSIK | 0.632 ± 0.015 |
| PDVPLASPSPFR | 0.625 ± 0.023 |
| SCVSCACPVYWR | 0.662 ± 0.065 |
| PPPPPHSSPFRS | 0.694 ± 0.01 |
| SWPIWGSCGWRR | 0.739 ± 0.11 |
| KKNKKKNRTKIE | 0.657 ± 0.022 |
| NRELTAVTFQRY | 0.709 ± 0.05 |
| RRGWRRGGLGNG | 0.683 ± 0.052 |
| ITIRGLTGRFRQ | 0.713 ± 0.17 |
| GVRGKDCMGGGM | 0.613 ± 0.063 |
| VCESAGERVMGG | 0.705 ± 0.051 |
| AVRELIRASGPG | 0.642 ± 0.043 |
| AVQSEFGVGFSM | 0.736 ± 0.04 |
| SRGLPRLLCPPP | 0.747 ± 0.025 |
| FPWFYPNHLEVP | 0.698 ± 0.063 |
| LSLPTLPLPPPS | 0.7173 ± 0.006 |
| LPPPPPSSSPSP | 0.7005 ± 0.0067 |
| GASGGRIGEGEE | 0.679 ± 0.011 |
| PSTLPLRLPRMF | 0.644 ± 0.057 |
| FSFPAPRGLLWV | 0.547 ± 0.027 |
| GRTCCGGGVGFG | 0.595 ± 0.033 |

| Sequence | protein stability index |
| --- | --- |
| PRSPPPPSPPPY | 0.583 ± 0.02 |
| GGVSGQLLRSHG | 0.682 ± 0.0027 |
| PPHRPPTRPRPR | 0.64 ± 0.0094 |
| PQPLYAPFPPPL | 0.789 ± 0.096 |
| PSPSRAPPMAPS | 0.6982 ± 0.0013 |
| PPGCPCPASTGS | 0.6916 ± 0.004 |
| PSPLPPPVSRPP | 0.691 ± 0.049 |
| SLGRYVDCLLGC | 0.6463 ± 0.0044 |
| VLSSSTLFFLVF | 0.584 ± 0.024 |
| EWMIHQFCRVPV | 0.62 ± 0.0097 |
| VGSGGGKGLCRQ | 0.674 ± 0.048 |
| TPSLLSPPLSLA | 0.7036 ± 0.0027 |
| PERFHLVCWVGR | 0.712 ± 0.083 |
| FSAPLPPARSPS | 0.798 ± 0.11 |
| PSPAPTPPTPHS | 0.721 ± 0.28 |
| PQDRGICQIIES | 0.632 ± 0.017 |
| ASGSLGQIFSGL | 0.699 ± 0.026 |
| RKTKKKKENKRR | 0.7131 ± 0.0043 |
| QKERENKHTEIE | 0.645 ± 0.21 |
| GRSGSGGTWELG | 0.643 ± 0.039 |
| QPAVKIGYAMAL | 0.644 ± 0.048 |
| GGVLAGEWGAGL | 0.624 ± 0.051 |
| WNFVCGVFFATG | 0.543 ± 0.056 |
| KKKQKKERKKTK | 0.649 ± 0.042 |
| FSSYDLISFVLV | 0.538 ± 0.0099 |

| Sequence | protein stability index |
| --- | --- |
| FSKTYTIMLITI | 0.538 ± 0.0077 |
| QQRVKTYHELHL | 0.712 ± 0.013 |
| QKKELQKQKIAK | 0.683 ± 0.015 |
| YLSPSTPLPVVL | 0.64 ± 0.1 |
| LLRGDVVALRAH | 0.618 ± 0.052 |
| GVGGVLLCCCIV | 0.573 ± 0.35 |
| QKKKQTDHTNGV | 0.684 ± 0.03 |
| DPLIILLSSVKL | 0.718 ± 0.0099 |
| PPPPRPPRPYSV | 0.767 ± 0.27 |
| IESLDRRGAEQI | 0.747 ± 0.045 |
| SARDQGISCAEC | 0.674 ± 0.04 |
| PPPPATRPSPCY | 0.706 ± 0.048 |
| PPPPPPSVLSPP | 0.722 ± 0.061 |
| SLRSSLFSPHHC | 0.649 ± 0.044 |
| SSGSLITIASPF | 0.745 ± 0.024 |
| PSPPPLSSPPSP | 0.6425 ± 0.003 |
| SGGSGGSCMRYV | 0.691 ± 0.025 |
| RIEKYKKKKETK | 0.712 ± 0.084 |
| SCCTITVPERPR | 0.653 ± 0.045 |
| LSDMNHVLKVFL | 0.665 ± 0.054 |
| YFVSCACSSYFV | 0.601 ± 0.02 |
| RGVGGREGAAPV | 0.691 ± 0.0093 |
| APPPPPPPPRPL | 0.642 ± 0.041 |
| YEYPRVTFSPQT | 0.7878 ± 0.005 |
| SRAARLLPKLLI | 0.589 ± 0.055 |

| Sequence | protein stability index |
| --- | --- |
| TAKVYEKEGGEE | 0.671 ± 0.019 |
| NPDVYKRNYQHK | 0.605 ± 0.035 |
| VVVRAGAIFAIP | 0.62 ± 0.045 |
| VRVEGQCWMGRI | 0.679 ± 0.017 |
| CGVYGRVVEWGG | 0.706 ± 0.042 |
| LSPPPPLALTPS | 0.709 ± 0.021 |
| RHIDSRDPTDSP | 0.651 ± 0.081 |
| KGGSVNRLSQVR | 0.6713 ± 0.00097 |
| KTCGVGLDRMIG | 0.714 ± 0.0099 |
| PPRRSDSQQFSA | 0.676 ± 0.029 |
| GCWAGLGAPGVS | 0.71 ± 0.027 |
| GKVCVLKLSPWI | 0.814 ± 0.16 |
| RAPPAARIASGL | 0.677 ± 0.026 |
| SWGGELGATSGG | 0.708 ± 0.024 |
| SVAGGGSACRGC | 0.646 ± 0.039 |
| LLDRGLLSALLA | 0.563 ± 0.034 |
| LKPLRTWLSGSA | 0.719 ± 0.019 |
| EIGWEGLEGRGG | 0.756 ± 0.11 |
| RVVEFGFGGCHW | 0.758 ± 0.061 |
| SSCRHYRSPINH | 0.764 ± 0.069 |
| CVRRKYIGGGEG | 0.673 ± 0.025 |
| IRPDLWYGLAVV | 0.59 ± 0.023 |
| GSPALGSCSWSR | 0.627 ± 0.057 |
| PSPPYLIPHALS | 0.676 ± 0.041 |
| SSLLSPLRSAFL | 0.71 ± 0.066 |

| Sequence | protein stability index |
| --- | --- |
| VGPVDPGDSDGL | 0.699 ± 0.0065 |
| RGACGWVDWWGL | 0.856 ± 0.13 |
| SVAWPRLLSISP | 0.612 ± 0.0089 |
| PPNPPPGPTVPF | 0.768 ± 0.084 |
| VGGGGAELCVVE | 0.667 ± 0.022 |
| GIKMTWTNGQHF | 0.6909 ± 0.0054 |
| RKIERKHIKEFS | 0.664 ± 0.0089 |
| SGLERGCSRCWH | 0.687 ± 0.0088 |
| KTKVIFMYKKGQ | 0.675 ± 0.021 |
| FLPPYSLPTPPF | 0.699 ± 0.03 |
| EYRTAIYFQSLL | 0.701 ± 0.076 |
| PFALPPPSPFPP | 0.7116 ± 0.0063 |
| PARLQSTLHPRF | 0.634 ± 0.012 |
| HLPRHVSLLGPP | 0.671 ± 0.0079 |
| PFIPLSMLSPLV | 0.68 ± 0.036 |
| GWRAGGTGAPSR | 0.653 ± 0.041 |
| PPALPPVPPYPL | 0.673 ± 0.073 |
| ACDFCIPGVRLD | 0.745 ± 0.022 |
| RPDSPSPLPPPP | 0.637 ± 0.028 |
| VGACGWRGWCVV | 0.664 ± 0.011 |
| ITKTGAAEHASL | 0.63 ± 0.037 |
| DPAHPRPFDCPL | 0.709 ± 0.013 |
| LSFFGPPFPISF | 0.74 ± 0.043 |
| LGLSLPCRGFTL | 0.682 ± 0.0073 |
| ACDGIRRPVRGG | 0.697 ± 0.059 |

| Sequence | protein stability index |
| --- | --- |
| PPSNPLTRAQCL | 0.737 ± 0.14 |
| FMVIRVGGWGVL | 0.646 ± 0.094 |
| KCAIKKQEQTSR | 0.642 ± 0.02 |
| GLAFVGWGPRFR | 0.71 ± 0.028 |
| RVEELKFKNLII | 0.6633 ± 0.004 |
| NINVSFLSNECR | 0.6735 ± 0.0021 |
| PPPLLAPHPPPP | 0.697 ± 0.01 |
| HLGPPPGRVFAV | 0.6194 ± 0.0052 |
| SLYVRRCKEASK | 0.6894 ± 0.0023 |
| EGMENECDLRIK | 0.74 ± 0.066 |
| SGSFAIYCSVSF | 0.611 ± 0.045 |
| HPKPNLPPAAVH | 0.6854 ± 0.0049 |
| AIRSSRMPLGSA | 0.668 ± 0.07 |
| PPRPPPLPPSPP | 0.685 ± 0.094 |
| LPLSGIETSVSR | 0.683 ± 0.03 |
| KERARNTKRGSD | 0.641 ± 0.08 |
| PPTPPSLPPLSP | 0.665 ± 0.086 |
| VWTATLRPPGHP | 0.655 ± 0.068 |
| PHSDGVRLAEGF | 0.713 ± 0.077 |
| ELFGSGERRVVV | 0.68 ± 0.014 |
| PRPPRWSSPWPV | 0.719 ± 0.058 |
| ALSELSIDISHI | 0.632 ± 0.067 |
| GPRLSGGLGGVG | 0.637 ± 0.045 |
| THTPPPHRPSNR | 0.682 ± 0.22 |
| PPPQDPTRRRRP | 0.7116 ± 0.0054 |

| Sequence | protein stability index |
| --- | --- |
| SSIHSLRQVISI | 0.614 ± 0.051 |
| FTSPNGVRVCFH | 0.843 ± 0.02 |
| GWGGGEGVEGEP | 0.678 ± 0.048 |
| NIKIILPWNPPE | 0.667 ± 0.013 |
| FALSSLTFPLPT | 0.744 ± 0.094 |
| PAPPHPRHPPPP | 0.649 ± 0.018 |
| VWGRGWVVGWFL | 0.612 ± 0.066 |
| APPPPPPLLLSF | 0.626 ± 0.038 |
| EMGGLKACRGGG | 0.553 ± 0.026 |
| IGFNVEIRKGMG | 0.605 ± 0.082 |
| GDVLLLVGAGER | 0.706 ± 0.1 |
| PRPRTQPHPGPG | 0.711 ± 0.0096 |
| LSIIRSPDWVDC | 0.639 ± 0.059 |
| ARAPPLPPPPAL | 0.698 ± 0.0076 |
| DSFLFVPREVAD | 0.687 ± 0.013 |
| AWVCSPSACGLV | 0.834 ± 0.089 |
| FPASPQAPPPLP | 0.65377 ± 0.00019 |
| GGLEVDWVGCGV | 0.701 ± 0.012 |
| PPPPPPPPAPFP | 0.687 ± 0.056 |
| NDHEQGPTQARG | 0.669 ± 0.044 |
| SLDLALLSPFFG | 0.679 ± 0.029 |
| PPSRPLPFLLPH | 0.696 ± 0.0091 |
| CSLQCLGWPISS | 0.739 ± 0.087 |
| DLILECRYEVGV | 0.667 ± 0.053 |
| PPILHPPPDIPG | 0.701 ± 0.042 |

| Sequence | protein stability index |
| --- | --- |
| HIYHIRFANKRG | 0.657 ± 0.013 |
| FLWAPRWFCVGH | 0.651 ± 0.041 |
| CSGFPPPPHSSL | 0.6812 ± 0.00089 |
| NIIYKRKKGRRW | 0.6889 ± 0.001 |
| LVMQSVQDDPVF | 0.692 ± 0.0081 |
| GKAIKRPIGIRG | 0.683 ± 0.019 |
| GEAREEEKKGRW | 0.631 ± 0.027 |
| GGGGGVCGACVV | 0.685 ± 0.016 |
| IIPQSCTSGGHT | 0.711 ± 0.061 |
| RFASVLSLPLSV | 0.642 ± 0.13 |
| PMRAALIIFLVR | 0.5 ± 0.1 |
| KKRTQKKKKYNR | 0.6943 ± 0.0063 |
| KIMIRKIEIKKE | 0.69 ± 0.049 |
| AEGPAGNRGLGG | 0.6564 ± 0.0058 |
| WRVFPVVSCSSS | 0.6312 ± 0.0053 |
| RNEDYQKKRKGK | 0.701 ± 0.022 |
| LVDEGRGLRWSR | 0.679 ± 0.0075 |
| PLPSQYANPMIL | 0.664 ± 0.0051 |
| KKKKKNTIKKNK | 0.708 ± 0.0083 |
| GARRSAVPWSPK | 0.723 ± 0.018 |
| LNRTLCYKCILR | 0.564 ± 0.018 |
